# Values of other authors as cited in paper PMC12378658.
# Tests used:
# TSLPR (Homo sapiens) = TSLPR (Homo sapiens) (UniProt Q9HC73)
# [1] = target: TSLP:TSLPR complex (Homo sapiens) (UniProt Q969D9)
# Chain of UniProt Q9HC73 (Q9HC73 23-231): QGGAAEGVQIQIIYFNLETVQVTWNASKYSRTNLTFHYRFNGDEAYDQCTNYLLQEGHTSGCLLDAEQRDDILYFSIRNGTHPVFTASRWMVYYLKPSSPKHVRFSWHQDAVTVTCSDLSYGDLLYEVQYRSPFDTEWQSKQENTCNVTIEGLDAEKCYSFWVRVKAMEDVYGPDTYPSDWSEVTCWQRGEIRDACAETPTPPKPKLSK
Kd (TSLPR (Homo sapiens)),Kd [1],Substance
32 nM,,TSLP (from UniProt Q969D9)
,29 nM,IL-7Rα (from UniProt P16871)
